# Measured values reported in US20240360228A1 (BIOLEGEND, published 2024).
# B1: AB11 (antibody, V domains shown)
# VH: EVQLVESGGGLVQPKGSLKLSCAASGFAFNTYAMNWVRQAPGKGLEWIARLRSKSNFYATYYADSVKDRFTISRDDSQSMLYLQMNNLKTEDTAVYYCVRGRELGPSYAMDYWGQGTSVTVSS
# VL: DIVMTQAAPSVPVTPGESVSISCRSSKSLLHSNGNTYLYWFLQRPGQSPQLLIYRMSNLASGVPDRFSGSGSGTAFTLRISRVEAEDVGVYYCMQHLEYPYTFGGGTKLEIK
# notes: Hybridoma monoclonal; also called antibody 11; clone 11
# How the values were obtained:
# [1] = target: T1, human chemokine (C-C motif) receptor 8 (CCR8) (human, UniProt P51685 1-355); experiment: cell-based or functional assay
# T1 sequence (P51685 whole entry): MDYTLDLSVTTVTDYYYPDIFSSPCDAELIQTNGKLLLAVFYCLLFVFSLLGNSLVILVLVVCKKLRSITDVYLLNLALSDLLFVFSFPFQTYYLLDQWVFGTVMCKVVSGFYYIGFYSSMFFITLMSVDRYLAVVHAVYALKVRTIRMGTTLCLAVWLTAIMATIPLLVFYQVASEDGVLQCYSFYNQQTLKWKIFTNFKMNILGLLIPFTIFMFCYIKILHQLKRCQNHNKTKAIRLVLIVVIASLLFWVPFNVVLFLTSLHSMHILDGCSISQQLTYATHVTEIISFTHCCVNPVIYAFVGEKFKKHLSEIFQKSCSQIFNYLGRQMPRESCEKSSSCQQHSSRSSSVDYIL
# [2] = target: T1, human chemokine (C-C motif) receptor 8 …; experiment: cell-based or functional assay; remark: listed apart in the source
# [3] = target: T1, human chemokine (C-C motif) receptor 8 …; experiment: flow cytometry blocking, PBMC CCR8+ CD4+ cells; competitor PE-AB1 (its MFI is read)
# Method: (§1) For blocking studies, 100 μL of the cell suspension were incubated with 10 μg purified isotype control, AB1, AB2, AB3, AB4, AB5, AB8, AB9, AB10, AB11, AB12, AB13, AB14, AB15, and Commercial ABI antibodies, or isotype control, as blocking agents.
# (§2) After incubation with the blocking agent, the cells were incubated with 0.25 μg of the indicated PE-conjugated antibody plus anti-human CD4 APC or anti-human CD3 for another 15 minutes in the dark and then washed 2 times with Cell Staining Buffer, and acquired in a FACSCanto II flow cytometer (BD Biosciences); the data was analyzed using FCS Express (De Novo Software); MFI correspond to the CCR8+ CD4+ lymphocytes or CCR8+ CD3+ lymphocytes.
# (§3) Percentage original MFI was calculated by dividing the MFI of samples blocked with AB1, AB2, AB3, AB4, AB5, AB6, AB7, AB8, AB9, AB10, AB11, AB12, AB13, AB14, AB15, and Commercial ABI antibodies, by the MFI of samples blocked with the corresponding isotype control. This value was subtracted from 100 to get a blocking percentage. The formula is shown below: […]
# [4] = target: T1, human chemokine (C-C motif) receptor 8 …; experiment: flow cytometry blocking, PBMC CCR8+ CD4+ cells; competitor PE-AB2 (its MFI is read)
# Method: as §1, §2, §3
# [5] = target: T1, human chemokine (C-C motif) receptor 8 …; experiment: flow cytometry blocking, PBMC CCR8+ CD4+ cells; competitor PE-AB3 (its MFI is read)
# Method: as §1, §2, §3
# [6] = target: T1, human chemokine (C-C motif) receptor 8 …; experiment: flow cytometry blocking, PBMC CCR8+ CD4+ cells; competitor PE-AB4 (its MFI is read)
# Method: as §1, §2, §3
# [7] = target: T1, human chemokine (C-C motif) receptor 8 …; experiment: flow cytometry blocking, PBMC CCR8+ CD4+ cells; competitor PE-AB5 (its MFI is read)
# Method: as §1, §2, §3
# [8] = target: T1, human chemokine (C-C motif) receptor 8 …; experiment: flow cytometry blocking, PBMC CCR8+ CD4+ cells; competitor PE-AB6 (its MFI is read)
# Method: as §1, §2, §3
# [9] = target: T1, human chemokine (C-C motif) receptor 8 …; experiment: flow cytometry blocking, PBMC CCR8+ CD4+ cells; competitor PE-AB10 (its MFI is read)
# Method: as §1, §2, §3
# [10] = target: T1, human chemokine (C-C motif) receptor 8 …; experiment: flow cytometry blocking, PBMC CCR8+ CD4+ cells; competitor PE-AB11 (its MFI is read)
# Method: as §1, §2, §3
# [11] = target: T1, human chemokine (C-C motif) receptor 8 …; experiment: flow cytometry blocking, PBMC CCR8+ CD4+ cells; competitor PE-AB12 (its MFI is read)
# Method: as §1, §2, §3
# [12] = target: T1, human chemokine (C-C motif) receptor 8 …; experiment: flow cytometry blocking, PBMC CCR8+ CD4+ cells; competitor PE-AB13 (its MFI is read)
# Method: as §1, §2, §3
# [13] = target: T1, human chemokine (C-C motif) receptor 8 …; experiment: flow cytometry blocking, PBMC CCR8+ CD4+ cells; competitor PE-AB14 (its MFI is read)
# Method: as §1, §2, §3
# [14] = target: T1, human chemokine (C-C motif) receptor 8 …; experiment: flow cytometry blocking, PBMC CCR8+ CD4+ cells; competitor PE-AB15 (its MFI is read)
# Method: as §1, §2, §3
# [15] = target: T1, human chemokine (C-C motif) receptor 8 …; experiment: flow cytometry blocking, PBMC CCR8+ CD4+ cells; competitor PE-ABII (its MFI is read)
# Method: as §1, §2, §3
binder,measurement,setting,value
B1,ratio of Target/Control cells after AB11 plus complement,[1],0.103
same,% hCCR8-Ba/F3 - THP-1 complexes,[2],1.12%
same,% Blocking,[3],-48.1%
same,MFI,[3],971
same,% Blocking,[4],-53.5%
same,MFI,[4],1030
same,% Blocking,[5],-61.7%
same,MFI,[5],1120
same,% Blocking,[6],-53.4%
same,MFI,[6],1050
same,% Blocking,[7],-36%
same,MFI,[7],1020
same,% Blocking,[8],-36.2%
same,MFI,[8],1070
same,% Blocking,[9],34.5%
same,MFI,[9],661
same,% Blocking,[10],25.3%
same,MFI,[10],674
same,% Blocking,[11],0.83%
same,MFI,[11],968
same,% Blocking,[12],7.44%
same,MFI,[12],867
same,% Blocking,[13],-1190%
same,MFI,[13],11400
same,% Blocking,[14],-75.1%
same,MFI,[14],1390
same,% Blocking,[15],16.6%
same,MFI,[15],924
